Laboratory results as given in the DeepSol protein solubility set.

Assay: soluble on expression in E. coli; label from the status in PepcDB or PDB records
In the case of “MEQLSIQTDELQDQFSNCSPASVDSSYSSCSSVEDEIEIYTRLVRNEEPLRRDFFREMSKNSSCSSSFDYGEFGPSSSSRKGSKTTDADLDSLFHSLVETSDQVNTVPKPTKTEVESIPEEFEQKPSSSSHRLPSEMNASITHIKSELDPTMQAFQMPHNDLFLATAAPHYNPFALSNDFMPNPLMPSFTSPFYPQHFPVSDSRRGSQGTTSSSNNTGGTPSPHSSSLPTSPPQLQGFLRSFLNPDNLSTPTSFGVPSETALDADKMCAVCNDRAVCLHYGARTCEGCKGFFKRTVQKNSKYTCAGNKTCPIDKRYRSRCQYCRYQKCLEVGMVKEIVRHGSLSGRRGRLSSKTKLARSEDQPSPPLPLLALMGKAIEDHTNMTVVRQFMQPFDETIALRILHGELHATKKLLMAMPQISEIQPADFQILLSRSFFAIMAIRVANRCGNSTDTIMFESGELFSLNAFPACFQQIIRFMVDKARTFSSLVDWEPQAFAAFIALQFLAGNTEHNVLGLTNKPLVDQVQSTIINALKDHCSGSQNKLAKIVRLTQEFDVFHALGLQALDILYPSHQLPEEFMFLINLTRAPLRSTDAPPACGSPVAPSGSSLFNFQMGPAAF”, the “soluble on expression in E. coli” value is reported as “not soluble”. With “MEQMIFIRKDDKVEVFSEEEELKGSYYRAILEDNPTKSGHNKLKVRYLTQLNEHRLAPLTEFVDQRFIRPVPSEDVNDGVVFVEGLMVDAYLKDGWWTGVVVKTMEDEKFLVYFDCPPDIIQFEKKKLRVHLDWTGFKWIRPDNKELVKSVFSCGTMVELRFDCAWIPVIVIKELEKDKRFLVKYWNKSYSCRESKNLIVDSLRLRPMQPPLSVGKYELLDHVEAFSGFEWRQGVVRGIVFEGRYMVSFGATKEASQFNHSDIRPPMEWEDGVWHKRTKPKRQKETSLDGNRNVQTKEPPGNEMADDVKKESGLPITLGVTATKNKTQGKVSPVPMKNGFGNESTREKMPEEPKIKYYTRKRKRGGLKLNSYINKTVLSSDRTPNVVKNSASNAEENHAKHTIMVLPFAKKSPVWKTYESLEVFKSVSHSLHFSPLFETKQDFREGYAIGMMVTYFGLLEKFKDLEADVPVSQLNSLKDSFSELEKHGFNVTTPLSRIDKLLALKDRQLYIMEELKGFDKEMTNEFSKAKQEFDDMEQKILEVKHKIIELQRQEAALKEQKEAEKEQKDAAWKKICQMESCAKDLNVELEDVEFEFETILSAPW” the “soluble on expression in E. coli” value was “soluble”. With “MEQNGFHTLSLFLNPKVLRPLLTQAVTQLPKYFLGQSSTPPSTSFEGRYKPSFLERAAFSTNPFDNTGSDTQQKLSPTELIRGSYGEGREAGKKTPAELIMSTDDLKRQMPSLPDALKDTIRIQEVPKQEKSDFSEQGGVASMIPQSPFVSNIDKVSGDEAGRQQKDVMDYITEFNNRSMPEEQRGSSPVNEETLSHTPISEEEHLKANDMPEQATDYVNAVGNFIHKDANPSNLWERFRKSEFSEHLMDFFAGLASGKTPQESFSNAALVMRQGNNTRLQNRPIFAFLRSKGYDDKDAQAIMQYPDLAMKVIGSTLSPQEDYRTLTAEEKAKQGLPEDMAFQISTSTGKIIPVQGGQRSTASGLGGNTDSMLSKPESGYMLVKDKNAPHGIRAMPIAGSGAEHKLIQEQKEEERKEQQAKMQILESADRSNRIISTSKELLKIVDEHPHVAGFLGYWGSFIPGFKAKDFGHMLDSLKASIGLDALTKAKAFSPNGASGFGNLSNMELQALQNSVAALYQDLTAEQLKKSLTTIIDTFNKSNAATRAILFGGAEATRELVRAAYGEDAYKKNNTQSDVSLEKQIEALPEGILFIDSDGRIKEKQTNG” the “soluble on expression in E. coli” value was “not soluble”. With “MEQNIATAQVSVARPNWDKSRLVSRIVHLGCGAFHRAHQALFTHHLLEKSDSDWGICEVNLMPGNDARLIANLKAQNLLYTVAERGAESTELKIIGSMKEALHPEFDGHAGILAAMARPETAIVSLTVTEKGYCTDPASGELDVNNPLIQNDLAHPQQPKSAIGYIVEALNMRREQGLKAFTVLSCDNVRENGHVAKAAVLGLAKARDAALAAWIADNVTFPCTMVDRIVPAATEETLQLVADQLGVYDPCAIACEPFRQWVIEDNFVNGRPDWDTVGAQFVADVVPFEMMKLRMLNGSHSFLAYLGYLGGYDTIADTMTNPAYRRAALALMLDEQAPTLSMPEGTDLEGYANLLIARFTNPSLKHRTWQIAMDGSQKLPQRLLDPVRLHLQQGDDYRRLTLGVAGWMRYVGGVDEQGKTIDVVDPLLAQYQAIHQQYQTPEERVRGLLAIESIFGNDLPKNHEFVQAVTDAYQQLLQNGAKATVEALAK” the “soluble on expression in E. coli” value was “not soluble”. For “MEQQIADLLDEQEELDLPQEQLEAAEGESEEESEEESSQGEKFPKTRAARIQRLVRDAAVSRNVKDLYGGECQACGLRLVGPDGRPYSEGAHIRPLGKPHCGPDVEPNVLCLCPNCHVRLDIGAIIIEDDWSIIVRAGELGGNVLSKLKRKKEHHVHLDYVRYHREWWLEKGDPSQELEHHHHHH”, the “soluble on expression in E. coli” value was “soluble”. With “MEQQSYTIIDETGAHARPATMLVQTASKFDSDIQLEYNGKKVNLKSIMGVMSLGVGKDAEITIYADGSDEADAIQAITDVLSKEGLTE” the “soluble on expression in E. coli” value was “soluble”. With “MEQRTRLALLKEIAEFLNEETEMYSMTQGALKYLIEGSNFTTGWIFFINSVGEHELVSHVALPQSLTADHCHYIKDGSCWCVKAFNQRRLMKASNIVNCSRINLASKAFPSQNDNITHHATVPLKSGQEQFGILNVASPNTEIYSDEDLELLESVAFQLGSAIKRIYLTDREKEAAKINERNRLARDLHDSVNQMLFSVKLTAHAAYGMSNESIAKQAFKTIEKTSQNAVNEMRALIWQLKPVGLEQGLIHALTAYSKLMHIQLNVNVEGLIDLSNEIEENIYRALQECINNVKKHADTNKMDLTLKQMNDILYIDVIDYGQGFEIDNVQIASSHGINNIKQRVKLLRGKVTFHSQPTKGTQIQFTIPIK” the “soluble on expression in E. coli” value was “not soluble”. In the case of “MERDGCFGNCWLRRWEKSDMNRKGFGGHRDAKQLSRTKNRFARLDPDTQSRYEDDDEPAVPVRASLTSASSRGRGGSSRGFGQSAASIANTGVRNADIVYKCRATGAAKKVDAKWLIKQLNQIIENFKPLLWTDNARGDFEWYVRDEDTASTIRANNRRVVHKESGTRVEFYTSKVPAPWMKLKREEIEIIHRVVDKRHNAENRVLDLSNFHEDEEFKAKDMMMNLTKGNVMLTVLDHIDDKYGNIVALSLSNNRIRHLDYASALVSIAKFVMELDLSHNHISTEKELEKFAGLPVERFFFEGNPVVESFTQRAAYISYIHQSFPRCNMLDGVEVQPLVVGPDLDIHDAMPFRAGYYPNPQIRVLVEQFVTSYFDFYDGPDGQRTRRNLHNAYDADASTFSLTIEHLRGSSHARHHNDECFAQYAGVSHNVLKQERFARHRASRSARGAMDIAVALSKLPTSSHMRDTFIVDVFLQSNDLLGFTVQGLFCDGDLTQTPSPSFFSRSFLVSPRENDSVAVISDQLFITVASLDRLEKFKKLYDQSIANGAAVEQVSAVQIAQIGVNGMGFDGAPALPIREEMIKAMCQFSGMIPPFSEKCLADCAWNFDFACQKFNEIKSSVPAEAFAH”, the “soluble on expression in E. coli” value is reported as “not soluble”. With “MERELAHWVERLRERAEAEGLSFPPVAFQEVGPEEMAMLAAYGGFPRRYPHWRWGSAYLHYRETYRYGLARIYELVVNTVPVQAYLLRGNPLLAQKLVVAHVYAHADFFQNNLAFKPIPKDMLAEMAHHAAYVERAMERHGARSVEEFLDLALSLENLIDPHAPYIQRPAQKEEEAPKRLPVRPYLDPYVNPAPAFPKEAEEGASPEPLPPRPTRDILGFLARHAPLAPWQKGILEIVREESLYFAPQAATKILNEGWATYWHTRLLLPLLTPEEALEFAEMQANLLAPHGLNPYRLGYHLLMEVEERWDKGRFGPEYEALPLGERLRYERPTGEGRKKLFQVRTVYTDLNFLEEFLTPEFALRRGLFALEDLPRFAEAKKALLFRLTNLGYPIVELVDANYQNRGELLLAHAYEGVELDLRKTKAVLENLHRLWGRPVHLKTVVGGKETLLSAGA” the “soluble on expression in E. coli” value was “soluble”. For “MERSALVTGGASGLGRAAALALKARGYRVVVLDLRREGEDLIYVEGDVTREEDVRRAVARAQEEAPLFAVVSAAGVGLAEKILGKEGPHGLESFRRVLEVNLLGTFNVLRLAAWAMRENPPDAEGQRGVIVNTASVAAFEGQIGQAAYAASKGGVVALTLPAARELAGWGIRVVTVAPGLFDTPLLQGLPEKAKASLAAQVPFPPRLGRPEEYAALVLHILENPMLNGEVVRLDGALRMAPR”, the “soluble on expression in E. coli” value was “soluble”. For “MESFQTIVDNEVLMESCGIQQESKIKNFPWAVSFTVDGVNRLGGSIISPYHIITAAHGFITTIGSRGNLCENKNWKKPNSSIYRSIKFLRDTRKVAYGGTCIRGHTDKYPNDPRCKKSDVIHNKVRAVLVDGEFASSNCLKGHDWAIVEVEKRIHFSENVRPICLPRPNMYYTKSLAVPGWGRIFNESGPLIHEIPMRIDRDCKRPWSDRLPADADDFICATSMNVSNYSAPRTCHGDSGGGLEYRDDNYGRAFLIAITSFGTRGCPSNMLARFTRVDMYLNLICNYTGVCY”, the “soluble on expression in E. coli” value was “not soluble”. With “MESKRNKPGKATGKGKPVGDKWLDDAGKDSGAPIPDRIADKLRDKEFKSFDDFRKAVWEEVSKDPELSKNLNPSAKSSVSKGYSPFTPKNQQVGGRKVYELHHDKPISQGGEVYDMDNIRVTTPKRHIDIHRGK” the “soluble on expression in E. coli” value was “soluble”. In the case of “MESKSVDTRSIYRELGATLSYNMRLGNGMEIEPWLKAAVRKEFVDDNRVKVNSDGNFVNDLSGRRGIYQAGIKASFSSTLSGHLGVGYSRGAGVESPWNAVVGVNWSF”, the “soluble on expression in E. coli” value is reported as “not soluble”. In the case of “MESSVDEEALHQLYLWVDNIPLSRPKRNLSRDFSDGVLVAELIKFYFPKMVEMHNYVPANSLQQKLSNWGHLNRKVLNKLNFSVPDDVMRKIAQCSPGVVELVLIPLRQRLEERQRRQKLGVGSLQELAPQDSSGYMDMGLPQKVRGEGAPALGEQLREGRPLASRPPGYNQALQGDPSFVLQIAEKEQELLASQETVQVLQMKVKRLEHLLQLKNVRIDDLSRRLQQAERKQR”, the “soluble on expression in E. coli” value is reported as “soluble”. With “METALVSIIMPMYNAGKFLSKSIESVLEQTYQNWELLLIDDGSKDDSIDIALAFMEKDSRIFLLKNEQNMGIAKTRNKGIEASKGQYIAFLDSDDLWLPNKLEVQVKWMEEKKLLFTCSSYFVCNENGNITHERNFSEGPQTYQDLLKTNTIGCLTVVVESNLLKRHLMPDLKHEDYATWLNILKEINTVYFINEKLAIYRKLTTSTSSNKWNTISWVWKILRQNEQFSVIKSSFYLMRFLFYTTFKYAKNELEHHHHHH” the “soluble on expression in E. coli” value was “soluble”. For “METKQKERIRRLMELLKKTDRIHLKDAARMLEVSVMTIRRDLSQDDDPLPLTLLGGYIVMVNKPASSTNMPLPAKKTHHRDDLPVAILAAGLVRENDLVFFDNGPEMPLVISMIPDDITFTGICYSHRVFIALNEKPNATAILCGGTYRAKSDAFYDANNPSALDSLNPRKVFISASGVHEHFGVSWFNPDDLAAKRKAMERGLRKILLARHALFDEVAPASIGPLSAFDVLISDRPLPTDYAVHCRNGSVKVITPDSESE”, the “soluble on expression in E. coli” value was “not soluble”. With “METNLFKLSLDDVETPKGSMLDLKISQSKIALPKNTVGGTILRSDLLANFLTEGNFRASVDLQRTHRIKGMIKMVATVGIPENTGIALACAMNSSIRGRASSDIYTICSQDCELWNPACTKAMTMSFNPNPCSDAWSLEFLKRTGFHCDIICVTGWTATPMQDVQVTIDWFISSQECVPRTYCVLNPQNPFVLNRWMGKLTFPQGTSRSVKRMPLSIGGGAGAKSAILMNMPNAVLSMWRYFVGDLVFEVSKMTSPYIKCTVSFFIAFGNLADDTINFEAFPHKLVQFGEIQEKVVLKFSQEEFLTAWSTQVRPATTLLADGCPYLYAMVHDSSVSTIPGDFVIGVKLTIIENMCAYGLNPGISGSRLLGTIPQ” the “soluble on expression in E. coli” value was “soluble”.
